Reference: the supplement of paper PMC10567573

B1: STEAP1 (parent)
chain: WMLTRKQFGLLSFFFAVLHAIYSL

Variants of: B1
Test: protein stability index of a GFP-peptide fusion (GPS, HEK-293T) (PSI 1-6); higher = more stable
Conditions: c terminus: a fixed tail appended
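Further: lentivirally expressed fusions sorted by FACS into six bins by GFP to DsRed ratio, PSI derived from sequencing read proportions per bin multiplied by bin number.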

Compared with WMLTRKQFGLLSFFFAVLHAGYSL [I21G], WMLTRKQFGLLSFFFAVLHACYSL [I21C] is higher in protein stability index: 2.17 for the first, 2.21 for the second.

Compared with WMLTRKQFGLLSFFFANLHAIYSL [V17N], WMLTRKQFGLLSFFFAMLHAIYSL [V17M] is lower in protein stability index: 4.05 for the first, 2.85 for the second.

Compared with WMLTRKQFGLLSFFFACLHAIYSL [V17C], WMLTRKQFGLLSFFFAELHAIYSL [V17E] is lower in protein stability index: 2.6 for the first, 2.34 for the second.

Compared with WMLTRKQFGLLSFFFADLHAIYSL [V17D], WMLTRKQFGLLSFFFASLHAIYSL [V17S] is lower in protein stability index: 5.3 for the first, 2.07 for the second.

First: WMLTRKQFGLLSFFFALLHAIYSL [V17L]
Second: WMLTRKQFGLLSFFFAALHAIYSL [V17A]
The protein stability index of the first is lower: 1.7 for the first, 2.25 for the second.

Going from WMLTRKQFGLLSFFFATLHAIYSL [V17T] to WMLTRKQFGLLSFFFAILHAIYSL [V17I], the protein stability index falls from 2.33 to 1.73.

Going from WMLTRKQFGLLSFFFAQLHAIYSL [V17Q] to WMLTRKQFGLLSFFFAFLHAIYSL [V17F], the protein stability index rises from 3.15 to 3.24.

Going from WMLTRKQFGLLSFFFAWLHAIYSL [V17W] to WMLTRKQFGLLSFFFAKLHAIYSL [V17K], the protein stability index rises from 2.33 to 2.53.

First: WMLTRKQFGLLSFFFAYLHAIYSL [V17Y]
Second: WMLTRKQFGLLSFFFAHLHAIYSL [V17H]
The protein stability index of the first is lower: 2.99 for the first, 3.31 for the second.

Compared with WMLTRKQFGLLSFFFAPLHAIYSL [V17P], WMLTRKQFGLLSFFFAGLHAIYSL [V17G] is higher in protein stability index: 2.19 for the first, 2.58 for the second.

Going from WMLTRKQFGLLSFPFAVLHAIYSL [F14P] to WMLTRKQFGLLSFHFAVLHAIYSL [F14H], the protein stability index falls from 2.09 to 2.

Compared with WMLTRKQFGLLSFTFAVLHAIYSL [F14T], WMLTRKQFGLLSFRFAVLHAIYSL [F14R] is lower in protein stability index: 2.46 for the first, 1.51 for the second.

Compared with WMLTRKQFGLLSFIFAVLHAIYSL [F14I], WMLTRKQFGLLSFVFAVLHAIYSL [F14V] is lower in protein stability index: 2.96 for the first, 1.69 for the second.

Compared with WMLTRKQFGLLSFGFAVLHAIYSL [F14G], WMLTRKQFGLLSFCFAVLHAIYSL [F14C] is higher in protein stability index: 2.11 for the first, 2.35 for the second.

Compared with WMLTRKQFGLLSFLFAVLHAIYSL [F14L], WMLTRKQFGLLSFMFAVLHAIYSL [F14M] is lower in protein stability index: 1.73 for the first, 1.41 for the second.

Going from WMLTRKQFGLLSFWFAVLHAIYSL [F14W] to WMLTRKQFGLLSFKFAVLHAIYSL [F14K], the protein stability index rises from 1.82 to 2.49.

Going from WMLTRKQFGLLSFAFAVLHAIYSL [F14A] to WMLTRKQFGLLSFDFAVLHAIYSL [F14D], the protein stability index rises from 3.09 to 3.4.

First: WMLTRKQFGLLSFEFAVLHAIYSL [F14E]
Second: WMLTRKQFGLLSFNFAVLHAIYSL [F14N]
The protein stability index of the first is higher: 3.11 for the first, 2.85 for the second.

First: WMLTRKQFGLLSFYFAVLHAIYSL [F14Y]
Second: WMLTRKQFGLLSFQFAVLHAIYSL [F14Q]
The protein stability index of the first is lower: 1.47 for the first, 3.11 for the second.

First: WMLTRKQFGLLSFSFAVLHAIYSL [F14S]
Second: WMLTRKQFGLLSFFFAVLHAIWSL [Y22W]
The protein stability index of the first is higher: 2.82 for the first, 1.99 for the second.

Going from WMLTRKQFGLLSFFFAVLHAIRSL [Y22R] to WMLTRKQFGLLSFFFAVLHAICSL [Y22C], the protein stability index falls from 2.46 to 2.43.

Compared with WMLTRKQFGLLSFFFAVLHAIMSL [Y22M], WMLTRKQFGLLSFFFAVLHAINSL [Y22N] is lower in protein stability index: 2.45 for the first, 1.34 for the second.

Compared with WMLTRKQFGLLSFFFAVLHAIKSL [Y22K], WMLTRKQFGLLSFFFAVLHAIVSL [Y22V] is higher in protein stability index: 2.29 for the first, 2.48 for the second.

Compared with WMLTRKQFGLLSFFFAVLHAIQSL [Y22Q], WMLTRKQFGLLSFFFAVLHAITSL [Y22T] is lower in protein stability index: 2.21 for the first, 2.03 for the second.

First: WMLTRKQFGLLSFFFAVLHAIASL [Y22A]
Second: WMLTRKQFGLLSFFFAVLHAIPSL [Y22P]
The protein stability index of the first is lower: 1.58 for the first, 2.29 for the second.

First: WMLTRKQFGLLSFFFAVLHAIDSL [Y22D]
Second: WMLTRKQFGLLSFFFAVLHAIHSL [Y22H]
The protein stability index of the first is higher: 2.97 for the first, 2.1 for the second.

Going from WMLTRKQFGLLSFFFAVLHAISSL [Y22S] to WMLTRKQFGLLSFFFAVLHAIISL [Y22I], the protein stability index falls from 1.63 to 1.1.

First: WMLTRKQFGLLSFFFAVLHAIGSL [Y22G]
Second: WMLTRKQFGLLSFFFAVLHAIESL [Y22E]
The protein stability index of the first is lower: 2.2 for the first, 2.93 for the second.

Compared with WMLTRKQFGLLSFFFAVLHAIFSL [Y22F], WMLTRKQFGLLSFFFAVLHAILSL [Y22L] is higher in protein stability index: 1.56 for the first, 1.79 for the second.

Compared with WMLTRKQFGLLSFFFAVAHAIYSL [L18A], WMLTRKQFGLLSFFFAVSHAIYSL [L18S] is lower in protein stability index: 2.43 for the first, 1.86 for the second.

First: WMLTRKQFGLLSFFFAVHHAIYSL [L18H]
Second: WMLTRKQFGLLSFFFAVIHAIYSL [L18I]
The protein stability index of the first is higher: 2.03 for the first, 2 for the second.

Compared with WMLTRKQFGLLSFFFAVVHAIYSL [L18V], WMLTRKQFGLLSFFFAVTHAIYSL [L18T] is higher in protein stability index: 1.66 for the first, 1.92 for the second.

Going from WMLTRKQFGLLSFFFAVEHAIYSL [L18E] to WMLTRKQFGLLSFFFAVCHAIYSL [L18C], the protein stability index falls from 3.98 to 2.75.

Going from WMLTRKQFGLLSFFFAVRHAIYSL [L18R] to WMLTRKQFGLLSFFFAVGHAIYSL [L18G], the protein stability index rises from 1.8 to 2.66.

Compared with WMLTRKQFGLLSFFFAVWHAIYSL [L18W], WMLTRKQFGLLSFFFAVDHAIYSL [L18D] is higher in protein stability index: 1.74 for the first, 3.5 for the second.

Going from WMLTRKQFGLLSFFFAVPHAIYSL [L18P] to WMLTRKQFGLLSFFFAVYHAIYSL [L18Y], the protein stability index falls from 3.09 to 2.13.

Compared with WMLTRKQFGLLSFFFAVQHAIYSL [L18Q], WMLTRKQFGLLSFFFAVKHAIYSL [L18K] is higher in protein stability index: 2.82 for the first, 3.01 for the second.

First: WMLTRKQFGLLSFFFAVFHAIYSL [L18F]
Second: WMLTRKQFGLLSFFFAVLHCIYSL [A20C]
The protein stability index of the first is lower: 1.63 for the first, 2.18 for the second.

Going from WMLTRKQFGLLSFFFAVLHLIYSL [A20L] to WMLTRKQFGLLSFFFAVLHRIYSL [A20R], the protein stability index falls from 2.46 to 1.73.

Going from WMLTRKQFGLLSFFFAVLHVIYSL [A20V] to WMLTRKQFGLLSFFFAVLHFIYSL [A20F], the protein stability index rises from 1.08 to 2.8.

Going from WMLTRKQFGLLSFFFAVLHTIYSL [A20T] to WMLTRKQFGLLSFFFAVLHEIYSL [A20E], the protein stability index rises from 1.36 to 2.56.

First: WMLTRKQFGLLSFFFAVLHIIYSL [A20I]
Second: WMLTRKQFGLLSFFFAVLHGIYSL [A20G]
The protein stability index of the first is lower: 1.88 for the first, 2.13 for the second.

Going from WMLTRKQFGLLSFFFAVLHPIYSL [A20P] to WMLTRKQFGLLSFFFAVLHHIYSL [A20H], the protein stability index falls from 2.51 to 1.62.

Compared with WMLTRKQFGLLSFFFAVLHSIYSL [A20S], WMLTRKQFGLLSFFFAVLHNIYSL [A20N] is lower in protein stability index: 2.41 for the first, 2.02 for the second.

Compared with WMLTRKQFGLLSFFFAVLHWIYSL [A20W], WMLTRKQFGLLSFFFAVLHYIYSL [A20Y] is higher in protein stability index: 1.79 for the first, 2.1 for the second.

First: WMLTRKQFGLLSFFFAVLHQIYSL [A20Q]
Second: WMLTRKQFGLLSFFFAVLHMIYSL [A20M]
The protein stability index of the first is higher: 2.69 for the first, 1.66 for the second.

First: WMLTRKQFGLLSFFFAVLHDIYSL [A20D]
Second: WMLTRKQFGLLSFFFAVLHKIYSL [A20K]
The protein stability index of the first is higher: 2.62 for the first, 1.78 for the second.
